# Measured values: IntAct's records for PubMed 28712572
# Target: gbrap_human GABARAP (UniProt O95166)
# Sequence (O95166 whole entry): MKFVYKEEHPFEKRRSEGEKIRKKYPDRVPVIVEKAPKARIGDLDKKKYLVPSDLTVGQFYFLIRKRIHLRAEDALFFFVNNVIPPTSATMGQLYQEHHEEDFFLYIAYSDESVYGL
row,Substance,effect of a mutation on the interaction
1,"Pericentriolar material 1 protein (Homo sapiens), Q15154 S1955F",with no effect
2,"Pericentriolar material 1 protein (Homo sapiens), Q15154 S1955G",with no effect
3,"Pericentriolar material 1 protein (Homo sapiens), Q15154 S1955H",with no effect
4,"Pericentriolar material 1 protein (Homo sapiens), Q15154 S1955I",with no effect
5,"Pericentriolar material 1 protein (Homo sapiens), Q15154 S1955K",with no effect
6,"Pericentriolar material 1 protein (Homo sapiens), Q15154 S1955L",with no effect
7,"Pericentriolar material 1 protein (Homo sapiens), Q15154 S1955M",with no effect
8,"Pericentriolar material 1 protein (Homo sapiens), Q15154 S1955N",with no effect
9,"Pericentriolar material 1 protein (Homo sapiens), Q15154 S1955P",with no effect
10,"Pericentriolar material 1 protein (Homo sapiens), Q15154 S1955Q",with no effect
11,"Pericentriolar material 1 protein (Homo sapiens), Q15154 S1955R",with no effect
12,"Pericentriolar material 1 protein (Homo sapiens), Q15154 S1955T",with no effect
13,"Pericentriolar material 1 protein (Homo sapiens), Q15154 S1955V",decreasing interaction strength
14,"Pericentriolar material 1 protein (Homo sapiens), Q15154 S1955W",with no effect
15,"Pericentriolar material 1 protein (Homo sapiens), Q15154 S1955Y",with no effect
16,"Pericentriolar material 1 protein (Homo sapiens), Q15154 S1958A",with no effect
17,"Pericentriolar material 1 protein (Homo sapiens), Q15154 S1958C",with no effect
18,"Pericentriolar material 1 protein (Homo sapiens), Q15154 S1958D",with no effect
19,"Pericentriolar material 1 protein (Homo sapiens), Q15154 S1958E",with no effect
20,"Pericentriolar material 1 protein (Homo sapiens), Q15154 S1958F",with no effect
21,"Pericentriolar material 1 protein (Homo sapiens), Q15154 S1958G",with no effect
22,"Pericentriolar material 1 protein (Homo sapiens), Q15154 S1958H",with no effect

row,Substance,effect of a mutation on the interaction
1,"Pericentriolar material 1 protein (Homo sapiens), Q15154 S1958I",with no effect
2,"Pericentriolar material 1 protein (Homo sapiens), Q15154 S1958K",with no effect
3,"Pericentriolar material 1 protein (Homo sapiens), Q15154 S1958L",with no effect
4,"Pericentriolar material 1 protein (Homo sapiens), Q15154 S1958M",with no effect
5,"Pericentriolar material 1 protein (Homo sapiens), Q15154 S1958N",with no effect
6,"Pericentriolar material 1 protein (Homo sapiens), Q15154 S1958P",with no effect
7,"Pericentriolar material 1 protein (Homo sapiens), Q15154 S1958Q",with no effect
8,"Pericentriolar material 1 protein (Homo sapiens), Q15154 S1958R",with no effect
9,"Pericentriolar material 1 protein (Homo sapiens), Q15154 S1958T",with no effect
10,"Pericentriolar material 1 protein (Homo sapiens), Q15154 S1958V",with no effect
11,"Pericentriolar material 1 protein (Homo sapiens), Q15154 S1958W",with no effect
12,"Pericentriolar material 1 protein (Homo sapiens), Q15154 S1958Y",with no effect
13,"Pericentriolar material 1 protein (Homo sapiens), Q15154 T1974A",with no effect
14,"Pericentriolar material 1 protein (Homo sapiens), Q15154 T1974C",with no effect
15,"Pericentriolar material 1 protein (Homo sapiens), Q15154 T1974D",with no effect
16,"Pericentriolar material 1 protein (Homo sapiens), Q15154 T1974E",with no effect
17,"Pericentriolar material 1 protein (Homo sapiens), Q15154 T1974F",with no effect
18,"Pericentriolar material 1 protein (Homo sapiens), Q15154 T1974G",with no effect
19,"Pericentriolar material 1 protein (Homo sapiens), Q15154 T1974H",with no effect
20,"Pericentriolar material 1 protein (Homo sapiens), Q15154 T1974I",with no effect
21,"Pericentriolar material 1 protein (Homo sapiens), Q15154 T1974K",with no effect
22,"Pericentriolar material 1 protein (Homo sapiens), Q15154 T1974L",with no effect

row,Substance,effect of a mutation on the interaction
1,"Pericentriolar material 1 protein (Homo sapiens), Q15154 T1974M",with no effect
2,"Pericentriolar material 1 protein (Homo sapiens), Q15154 T1974N",with no effect
3,"Pericentriolar material 1 protein (Homo sapiens), Q15154 T1974P",with no effect
4,"Pericentriolar material 1 protein (Homo sapiens), Q15154 T1974Q",with no effect
5,"Pericentriolar material 1 protein (Homo sapiens), Q15154 T1974R",with no effect
6,"Pericentriolar material 1 protein (Homo sapiens), Q15154 T1974S",with no effect
7,"Pericentriolar material 1 protein (Homo sapiens), Q15154 T1974V",with no effect
8,"Pericentriolar material 1 protein (Homo sapiens), Q15154 T1974W",with no effect
9,"Pericentriolar material 1 protein (Homo sapiens), Q15154 T1974Y",with no effect
10,"Pericentriolar material 1 protein (Homo sapiens), Q15154 V1964A",disrupting interaction strength
11,"Pericentriolar material 1 protein (Homo sapiens), Q15154 V1964C",with no effect
12,"Pericentriolar material 1 protein (Homo sapiens), Q15154 V1964D",decreasing interaction strength
13,"Pericentriolar material 1 protein (Homo sapiens), Q15154 V1964E",with no effect
14,"Pericentriolar material 1 protein (Homo sapiens), Q15154 V1964F",with no effect
15,"Pericentriolar material 1 protein (Homo sapiens), Q15154 V1964G",disrupting interaction strength
16,"Pericentriolar material 1 protein (Homo sapiens), Q15154 V1964H",disrupting interaction strength
17,"Pericentriolar material 1 protein (Homo sapiens), Q15154 V1964I",with no effect
18,"Pericentriolar material 1 protein (Homo sapiens), Q15154 V1964K",disrupting interaction strength
19,"Pericentriolar material 1 protein (Homo sapiens), Q15154 V1964L",decreasing interaction strength
20,"Pericentriolar material 1 protein (Homo sapiens), Q15154 V1964M",disrupting interaction strength
